Laboratory results reported in doi:10.1101/2023.02.06.527249.
pKd: −log10 of the molar value.

Assays:
[1] = molecular target: HLA-C*05:01 (1-278) refolded with β2-microglobulin (1-99) and P2-IP (…); assay: SPR
[2] = molecular target: HLA-C*05:01 (1-278) refolded with β2-microglobulin (1-99) and P2-AW (…); assay: SPR
[3] = molecular target: HLA-C*05:01 (1-278) refolded with β2-microglobulin (1-99) and P2-AV (…); assay: SPR
[4] = molecular target: HLA-C*16:02 on cells loaded with P9 with the Q8S substitution (…) (human | human (endogenous in 721.221)); assay: flow cytometry on cells
[5] = molecular target: HLA-C*08:02 on cells loaded with P2-MW with p6 Val (human | human (endogenous in 721.221)); assay: flow cytometry on cells
[6] = molecular target: HLA-C*08:02 on cells loaded with P2-MW with p6 Pro (human | human (endogenous in 721.221)); assay: flow cytometry on cells
[7] = molecular target: HLA-C*08:02 on cells loaded with P2-MW with p6 Ile (human | human (endogenous in 721.221)); assay: flow cytometry on cells
[8] = molecular target: HLA-C*08:02 on cells loaded with P2-MW with p6 Lys (human | human (endogenous in 721.221)); assay: flow cytometry on cells
[9] = molecular target: HLA-C*08:02 on cells loaded with P2-MW with p6 Leu (human | human (endogenous in 721.221)); assay: flow cytometry on cells
[10] = molecular target: HLA-C*05:01 on cells loaded with P2-MW with p6 Asn (human | human (endogenous in 721.221)); assay: flow cytometry on cells

| Substance | pKd [1] | pKd [2] | pKd [3] | further results |
| --- | --- | --- | --- | --- |
| 2DL1 (1-224), recombinant, refolded (from UniProt P43626 22-245) (domain or fragment) | 6.36 | 5.96 | 6.00 | – |
| 2DS1 (3-200), recombinant, refolded (domain or fragment) | 5.64 | 5.72 | 5.59 | – |
| 2DS4 (3-200), recombinant, refolded (domain or fragment) | – | 5.70 | – | – |
| KIR2DS1*001-Fc (from UniProt Q14954 22-245) (Fc fusion) | – | – | – | fold change of binding against unmodified P9 [4]: 5 fold |
| KIR2DS4*001 KIR-Ig (KIR-Fc) fusion protein (from UniProt P43632 22-245) (Fc fusion) | – | – | – | percent of the binding with p6 Gly (P2-MW) [5]: > 50%; percent of the binding with p6 Gly (P2-MW) [6]: > 50%; percent of the binding with p6 Gly (P2-MW) [7]: > 50%; percent of the binding with p6 Gly (P2-MW) [8]: > 50%; percent of the binding with p6 Gly (P2-MW) [9]: > 50%; percent of the binding with p6 Gly (P2-MW) [10]: > 25% |
